T1: cyno VISTA-ECD (His tag) (cynomolgus macaque, UniProt Q9H7M9 33-193 (human entry))
T1 construct: also called cyVISTA-His
T1 chain: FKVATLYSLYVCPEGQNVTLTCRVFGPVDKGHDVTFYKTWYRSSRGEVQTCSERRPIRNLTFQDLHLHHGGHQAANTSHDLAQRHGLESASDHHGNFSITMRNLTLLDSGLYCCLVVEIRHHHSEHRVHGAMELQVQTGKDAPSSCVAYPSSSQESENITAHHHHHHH

T2: human VISTA-Fc (hVISTA extracellular domain, amino acids 33-194 of SEQ ID NO: 1, linked to an Fc domain) (human, UniProt Q9H7M9 33-194)
T2 construct: also called WT VISTA; hVISTAFc
T2 sequence: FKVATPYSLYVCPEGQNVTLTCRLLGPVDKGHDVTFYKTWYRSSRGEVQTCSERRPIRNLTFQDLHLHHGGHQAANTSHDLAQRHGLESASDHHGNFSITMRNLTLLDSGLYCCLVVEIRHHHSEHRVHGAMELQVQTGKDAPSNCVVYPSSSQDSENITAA

T3: human VISTA on cells (human monocytes, AML3 cells, 293T/HEK293 cells expressing full-length human VISTA) (human, UniProt Q9H7M9 33-311)
T3 sequence: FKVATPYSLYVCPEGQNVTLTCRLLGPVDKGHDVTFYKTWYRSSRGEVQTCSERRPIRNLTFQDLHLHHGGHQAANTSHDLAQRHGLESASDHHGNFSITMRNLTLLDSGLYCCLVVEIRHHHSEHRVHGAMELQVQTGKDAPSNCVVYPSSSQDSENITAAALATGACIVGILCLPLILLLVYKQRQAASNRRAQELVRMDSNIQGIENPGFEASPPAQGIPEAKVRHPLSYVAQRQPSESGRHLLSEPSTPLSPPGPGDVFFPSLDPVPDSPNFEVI


Legend:
[1] = molecular target: T4, monovalent hVISTA-ECD (amino acids 32-193 of SEQ ID NO: 1 with a 7xHis tail) (human, UniProt Q9H7M9 33-193); assay: SPR 37C pH 7.4
T4 construct: analyte of the SPR assays; also called huVISTA-His; hVISTA-His

[2] = molecular target: T1, cyno VISTA-ECD (His tag); assay: SPR 37C pH 7.4
[3] = molecular target: T5, avidin (ThermoFisher Scientific catalog #21128) (UniProt P02701 25-152); assay: SPR 25C pH 6.0 and 7.4
Method: (§1) The binding specificity of the '029, '761 and '767 clones to VISTA and to other high pI proteins was evaluated by SPR at neutral and acidic pH using a Biacore® T100 instrument (GE Healthcare). Protein A (ThermoFisher Scientific catalog #21181) was diluted to 20 ug/ml in 10 mM sodium acetate pH 4.5 and immobilized onto flow cells of a CM3 biosensor following the manufacturer's amine coupling protocol (GE Healthcare), targeting 800 RU immobilization density of Protein A per flow cell. SPR experiments were conducted at 25° C. using PBST (137 mM sodium chloride, 2.7 mM potassium chloride, 10 mM phosphate buffer, 0.05% Tween 20) running buffer at pH 7.4 and 6.0. Antibodies (formatted as IgG1.3 antibodies) were diluted to 50 nM in PBST pH 7.4, and were captured across active biosensor flow cells at 5 ul/min for 60 seconds. […] Two 15 second injections of 10 mM glycine pH 1.5 were used to regenerate the Protein A capture surface between assay cycles. Reference flow cell and 0 nM blank-subtracted sensorgrams were inspected using Biacore® T200 Evaluation Software v.2.0. The results are shown in […]

[4] = molecular target: BSA (Calbiochem catalog #126593) (UniProt P02769 25-607); assay: SPR 25C pH 6.0 and 7.4
Method: as §1

[5] = molecular target: T4, monovalent hVISTA-ECD (amino acids …); assay: SPR 37C
[6] = molecular target: T1, cyno VISTA-ECD (His tag); assay: SPR 37C
[7] = molecular target: T2, human VISTA-Fc (hVISTA extracellular …); assay: BLI
[8] = molecular target: T4, monovalent hVISTA-ECD (amino acids …); assay: SPR 37C pH 6.0
[9] = molecular target: T1, cyno VISTA-ECD (His tag); assay: SPR 37C pH 6.0
[10] = molecular target: T4, monovalent hVISTA-ECD (amino acids …); assay: SPR 37C; remark: listed apart in the source
Method: For this assay, '029, '761 and '767 were reformatted as hIgG1f isotype and were expressed as both standard hIgG1f and in hIgG1f afucosylated formats to compare against the hIgG1.3f Fc. An SPR kinetics assay was conducted to measure koff and KD binding affinity measurements for VISTA Abs at acidic and physiological pH using a Biacore® T100 instrument (GE Healthcare). Protein A (ThermoFisher Scientific catalog #21181) was diluted to 20 μg/ml in 10 mM sodium acetate pH 4.5 and immobilized onto flow cells of a CM5 biosensor following the manufacturer's amine coupling protocol (GE Healthcare), targeting 2,000 RU immobilization density of Protein A per flow cell. […] Antibodies were diluted to 25 nM in PBST pH 7.4, and were captured across active biosensor flow cells at 5 ul/min for 45 seconds. […] Two 15 second injections of 10 mM glycine pH 1.5 were used to regenerate the Protein A capture surface between assay cycles. Rate constants ka (kₒₙ) and kd (koff) were derived from reference flow cell and 0 nM blank-subtracted sensorgrams, and were fit to a 1:1 binding model in Biacore® T200 Evaluation Software v.2.0. The affinity constant, KD was calculated as the ratio of rate constants koff/kₒₙ for each VISTA antibody. Ratios of koff and KD at pH 7.4/pH 6.0 were calculated to compare off-rate and affinity improvement at acidic pH relative to physiological pH.

[11] = molecular target: T5, avidin (ThermoFisher Scientific catalog …); assay: SPR pH 6.0 and 7.4
[12] = molecular target: T4, monovalent hVISTA-ECD (amino acids …); assay: SPR (FIG. 19C)
[13] = molecular target: T3, human VISTA on cells (human monocytes, …); assay: cell-based or functional assay
[14] = molecular target: T4, monovalent hVISTA-ECD (amino acids …); assay: SPR 37C, 100 nM hVISTA-ECD, pH 7.4, 6.7, 6.0

T5 sequence (P02701 25-152 limits assumed): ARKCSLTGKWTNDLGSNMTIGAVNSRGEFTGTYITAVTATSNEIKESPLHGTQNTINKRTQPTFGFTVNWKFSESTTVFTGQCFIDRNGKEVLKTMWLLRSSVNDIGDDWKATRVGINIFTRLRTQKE
BSA (Calbiochem catalog #126593), sequence (P02769 25-607 limits assumed): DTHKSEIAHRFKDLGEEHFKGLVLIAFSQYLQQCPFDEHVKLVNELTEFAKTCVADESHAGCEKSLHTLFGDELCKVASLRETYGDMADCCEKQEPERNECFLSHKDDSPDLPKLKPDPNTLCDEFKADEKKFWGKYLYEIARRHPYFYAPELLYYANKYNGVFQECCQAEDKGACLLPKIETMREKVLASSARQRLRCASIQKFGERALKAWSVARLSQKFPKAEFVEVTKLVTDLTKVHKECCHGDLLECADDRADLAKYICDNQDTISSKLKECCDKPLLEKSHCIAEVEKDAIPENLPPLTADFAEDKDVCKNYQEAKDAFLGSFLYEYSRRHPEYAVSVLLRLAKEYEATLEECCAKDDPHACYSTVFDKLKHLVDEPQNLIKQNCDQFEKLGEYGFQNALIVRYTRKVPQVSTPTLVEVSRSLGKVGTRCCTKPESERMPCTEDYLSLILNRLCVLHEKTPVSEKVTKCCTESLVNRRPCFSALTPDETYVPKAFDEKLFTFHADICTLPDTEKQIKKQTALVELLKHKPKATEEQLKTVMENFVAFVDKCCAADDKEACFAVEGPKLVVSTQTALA

Kd [1] | koff [1] | kon [1] | Kd [2] | koff [2] | kon [2] | binding result [3] | binding result [4] | KD ratio (7.4/6) [5] | kd ratio (7.4/6) [5] | KD ratio (7.4/6) [6] | kd ratio (7.4/6) [6] | Kd [8] | kon [8] | Kd [9] | koff [9] | kon [9] | binding result [11] | Binder | other results
62 nM | 0.0075 s⁻¹ | 120000 M⁻¹ s⁻¹ | 47 nM | 0.0067 s⁻¹ | 140000 M⁻¹ s⁻¹ | no binding (tested: <=10 RU, 100-10 nM) | no binding (tested: <=10 RU, 100-10 nM) | 9.1 | 1.1 | 4.7 | 1.1 | 6.8 nM | 980000 M⁻¹ s⁻¹ | 10 nM | 0.0062 s⁻¹ | 620000 M⁻¹ s⁻¹ | – | P1-061029.IgG1.3 (antibody, also called P1-061029 hIgG1.3f; parent) heavy: EVQLVESGGGLVQPGKSLRLSCAASGFTLDDYAMHWVRQAPGKGLEWVSGINWNSANIGYADSVKGRFTISRDNAKNSLYLQMNSLRTEDTALYYCAKVPGYSGGWIDAFDVWGQGTMVTVSSASTKGPSVFPLAPSSKSTSGGTAALGCLVKDYFPEPVTVSWNSGALTSGVHTFPAVLQSSGLYSLSSVVTVPSSSLGTQTYICNVNHKPSNTKVDKRVEPKSCDKTHTCPPCPAPEAEGAPSVFLFPPKPKDTLMISRTPEVTCVVVDVSHEDPEVKFNWYVDGVEVHNAKTKPREEQYNSTYRVVSVLTVLHQDWLNGKEYKCKVSNKALPAPIEKTISKAKGQPREPQVYTLPPSREEMTKNQVSLTCLVKGFYPSDIAVEWESNGQPENNYKTTPPVLDSDGSFFLYSKLTVDKSRWQQGNVFSCSVMHEALHNHYTQKSLSLSPG light: not shown | binding result [7]: binds; koff [8]: 0.0066 s⁻¹
8700 nM | 0.037 s⁻¹ | 4300 M⁻¹ s⁻¹ | 5500 nM | 0.036 s⁻¹ | 6500 M⁻¹ s⁻¹ | no binding (tested: <=10 RU, 100-10 nM) | no binding (tested: <=10 RU, 100-10 nM) | 2120 | 26.4 | 696 | 21.2 | 4.1 nM | 350000 M⁻¹ s⁻¹ | 7.9 nM | 0.0017 s⁻¹ | 210000 M⁻¹ s⁻¹ | – | P1-068761.IgG1.3 (antibody, also called P1-068761 hIgG1.3f) heavy: EVQLVESGGGLVQPGKSLRLSCAASGFTLEDEAMHWVRQAPGKGLEWVSGINWNSEEIGYADSVKGRFTISRDNAKNSLYLQMNSLRTEDTALYYCAKVPGYSHGWIDAEDVWGQGTMVTVSSASTKGPSVFPLAPSSKSTSGGTAALGCLVKDYFPEPVTVSWNSGALTSGVHTFPAVLQSSGLYSLSSVVTVPSSSLGTQTYICNVNHKPSNTKVDKRVEPKSCDKTHTCPPCPAPEAEGAPSVFLFPPKPKDTLMISRTPEVTCVVVDVSHEDPEVKFNWYVDGVEVHNAKTKPREEQYNSTYRVVSVLTVLHQDWLNGKEYKCKVSNKALPAPIEKTISKAKGQPREPQVYTLPPSREEMTKNQVSLTCLVKGFYPSDIAVEWESNGQPENNYKTTPPVLDSDGSFFLYSKLTVDKSRWQQGNVFSCSVMHEALHNHYTQKSLSLSPG light: not shown | fold faster koff at pH 6.9 compared to pH 6.0 [10]: ≥ 10 fold; fold lower affinity at pH 6.45 compared to pH 6.0 [10]: ≥ 10 fold; fold lower affinity at pH 6.9 compared to pH 6.0 [10]: ≥ 100 fold; fold lower affinity at pH 7.4 compared to pH 6.0 [10]: ≥ 1000 fold; fold weaker KD at pH 6.9 compared to pH 6.0 [10]: ≥ 100 fold; selectivity for pH 6 over pH 7.4 in KD [10]: > 2000 fold; selectivity for pH 6 over pH 7.4 in koff [10]: > 10 fold
– | – | – | – | – | – | – | – | – | – | – | – | – | – | – | – | – | no binding | VISTA.4.IgG1.3 (antibody, V domains shown, also called 41F11) VH: QVQLVESGGGLVKPGGSLRLSCAASGFTFSDYYMSWIRQAPGKGLEWVSYISNSGSPIYYADSVKGRFTISRDNAKNSLYLQMNSLRAEDTAVYYCARDLPGWYFDLWGRGTLVTVSS VL: EIVLTQSPATLSLSPGERATLSCRASQSVSSYLAWYQQKPGQAPRLLIYDASNRATGIPARFSASGSGTDFTLTISSLEPEDFAVYYCQQRNNWPRTFGQGTKVEIKR | –
– | – | – | – | – | – | – | – | – | – | – | – | – | – | – | – | – | no binding | P1-072315-1 (41F11_VH_T28P/Y50W/S55E/L96E/Y100E VK_A64G) (antibody, V domains shown) VH: QVQLVESGGGLVKPGGSLRLSCAASGFPFSDYYMSWIRQAPGKGLEWVSWISNSGEPIYYADSVKGRFTISRDNAKNSLYLQMNSLRAEDTAVYYCARDEPGWEFDLWGRGTLVTVSS VL: EIVLTQSPATLSLSPGERATLSCRASQSVSSYLAWYQQKPGQAPRLLIYDASNRATGIPARFSGSGSGTDFTLTISSLEPEDFAVYYCQQRNNWPRTFGQGTKVEIK | –
– | – | – | – | – | – | – | – | – | – | – | – | – | – | – | – | – | no binding | P1-070976 (41F11_VH_T28P/Y50W/S55E/D95H/L96E/P97E/Y100E; VK_A64G), IgG1.3 (antibody, V domains shown, also called acidic pH selective VISTA.4 progeny) VH: QVQLVESGGGLVKPGGSLRLSCAASGFPFSDYYMSWIRQAPGKGLEWVSWISNSGEPIYYADSVKGRFTISRDNAKNSLYLQMNSLRAEDTAVYYCARHEEGWEFDLWGRGTLVTVSS VL: EIVLTQSPATLSLSPGERATLSCRASQSVSSYLAWYQQKPGQAPRLLIYDASNRATGIPARFSGSGSGTDFTLTISSLEPEDFAVYYCQQRNNWPRTFGQGTKVEIKR | fold higher affinity at pH 6.0 than at pH 7.4 [12]: 200 fold
– | – | – | – | – | – | – | – | – | – | – | – | – | – | – | – | – | – | VISTA.5 (VISTA antibody 1, non-blocking antibody) (antibody, V domains shown, also called VISTA mAb 1; mAb 1) VH: AVQLQESGPGLVRPSQSLSLTCTVTDYSITSDYAWNWIRQFPGSKLEWLGFIGYSGNTNYNPSLESRISITRHTSKNQFFLHLNSMTTEDTATYYCARSLYGGSHWYFDVWGAGTTVTVSS VL: DIVLTQSPASLAVSLGQRATISCRGSESVEYYGTILMQWYQQKPGQPPKLLIYGASNVESGVPARFSGSGSGTDFSLNIHPVEEDDIAMYFCQQSRKVPWTFGGGTKLEIK | EC50, AML3 viability (Cell Titer Glo), endolysosome-dependent antibody drug conjugate killing assay [13]: 0.485 µg/mL; binding result [14]: binds

Reference: patent US20220073617A1 (Five Prime, published 2022)
